{"source": "patent US10314894B2", "about": "“Treatment of cardio-renal disease using PCSK6” (THE CLEVELAND CLINIC FOUNDATION, priority 2014, dated 2019)", "key": {"recombinant human corin": {"molecular_target": "T1, recombinant human corin (Homo sapiens, UniProt Q9Y5Q5)", "T1 construct": "expressed in transfected cells; host or cells: HEK293", "T1 sequence (Q9Y5Q5 1-1042)": "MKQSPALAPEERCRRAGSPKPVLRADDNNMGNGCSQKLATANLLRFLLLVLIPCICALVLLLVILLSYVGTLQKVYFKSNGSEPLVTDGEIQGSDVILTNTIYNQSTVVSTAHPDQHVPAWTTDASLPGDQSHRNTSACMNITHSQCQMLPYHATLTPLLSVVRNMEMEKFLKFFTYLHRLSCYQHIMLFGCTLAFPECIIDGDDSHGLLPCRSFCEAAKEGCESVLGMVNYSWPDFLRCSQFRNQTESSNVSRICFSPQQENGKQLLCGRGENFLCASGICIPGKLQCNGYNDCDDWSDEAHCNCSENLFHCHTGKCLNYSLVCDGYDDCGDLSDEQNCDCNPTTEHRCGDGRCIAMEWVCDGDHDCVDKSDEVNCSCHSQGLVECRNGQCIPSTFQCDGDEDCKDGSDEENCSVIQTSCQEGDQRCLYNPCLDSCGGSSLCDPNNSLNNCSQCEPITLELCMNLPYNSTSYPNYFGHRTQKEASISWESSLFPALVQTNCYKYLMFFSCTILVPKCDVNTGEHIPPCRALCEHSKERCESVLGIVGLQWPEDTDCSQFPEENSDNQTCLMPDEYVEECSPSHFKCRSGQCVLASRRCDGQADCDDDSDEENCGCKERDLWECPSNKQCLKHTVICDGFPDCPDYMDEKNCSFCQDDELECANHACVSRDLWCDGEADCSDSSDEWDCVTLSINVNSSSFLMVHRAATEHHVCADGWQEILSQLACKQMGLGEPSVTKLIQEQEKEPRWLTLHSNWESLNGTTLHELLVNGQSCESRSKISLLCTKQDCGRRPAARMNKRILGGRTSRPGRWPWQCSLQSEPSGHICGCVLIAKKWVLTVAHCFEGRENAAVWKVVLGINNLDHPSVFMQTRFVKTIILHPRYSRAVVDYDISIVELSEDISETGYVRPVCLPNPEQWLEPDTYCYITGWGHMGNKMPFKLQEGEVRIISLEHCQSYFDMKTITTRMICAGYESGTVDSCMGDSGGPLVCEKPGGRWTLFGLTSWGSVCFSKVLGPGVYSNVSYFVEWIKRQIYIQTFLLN", "experiment": "PCSK1-9 plasmids transfected in HEK293 cells expressing recombinant human corin (Western analysis)", "format": "cell-based", "conditions": "plasmid transfected", "text": "The PCSK family has 9 members. PCSK1-9 plasmids were transfected in HEK293 cells expressing recombinant human corin. […] By RT-PCR, PCSK6 mRNA was detected in HEK293 and HL-1 cells and in mouse and human hearts where corin is normally expressed. Yan et al., J Biol Chem 274, 14926-14935 (1999). The results were consistent with previous reports of PCSK6 expression in atrial and ventricular cardiomyocytes. Beaubien et al., Cell Tissue Res 279, 539-549 (1995).\n(§1) Plasmids expressing human corin WT and mutants R801A, S985A, T555I, Q568P, T555I/Q568P, K317E, S472G and R539C were reported previously. Dong, N. et al., J Biol Chem 289, 17909-17916 (2014); Knappe et al., J Biol Chem 278, 52363-52370 (2003); Wu et al., J Biol Chem 277, 16900-16905. (2002). Plasmids expressing human PCSK1-9 were made by cloning respective cDNAs into pcNDA3.1 vector. Recombinant corin and PCSK proteins encoded by these plasmids contained a C-terminal V5 or flag tag for protein detection in Western blotting.\nHEK293 and HL-1 cells were transfected with corin or PCSK6 expression plasmids. After 48-72 h, cells were lysed in a buffer containing 25 mM Tris-HCl, pH 7.4, 150 mM NaCl, 1 mM EDTA, 1% (v/v) NP-40, and 1% (v/v) protease inhibitor cocktail. […] Percentage of corin activation (corin-p vs. corin fragments) was quantified by densitometric analysis of Western blots."}, "corin mutant S472G": {"molecular_target": "T2, corin mutant S472G (Homo sapiens, UniProt Q9Y5Q5, S472G)", "T2 construct": "expressed in transfected cells; host or cells: HEK293", "T2 sequence (Q9Y5Q5 1-1042 S472G)": "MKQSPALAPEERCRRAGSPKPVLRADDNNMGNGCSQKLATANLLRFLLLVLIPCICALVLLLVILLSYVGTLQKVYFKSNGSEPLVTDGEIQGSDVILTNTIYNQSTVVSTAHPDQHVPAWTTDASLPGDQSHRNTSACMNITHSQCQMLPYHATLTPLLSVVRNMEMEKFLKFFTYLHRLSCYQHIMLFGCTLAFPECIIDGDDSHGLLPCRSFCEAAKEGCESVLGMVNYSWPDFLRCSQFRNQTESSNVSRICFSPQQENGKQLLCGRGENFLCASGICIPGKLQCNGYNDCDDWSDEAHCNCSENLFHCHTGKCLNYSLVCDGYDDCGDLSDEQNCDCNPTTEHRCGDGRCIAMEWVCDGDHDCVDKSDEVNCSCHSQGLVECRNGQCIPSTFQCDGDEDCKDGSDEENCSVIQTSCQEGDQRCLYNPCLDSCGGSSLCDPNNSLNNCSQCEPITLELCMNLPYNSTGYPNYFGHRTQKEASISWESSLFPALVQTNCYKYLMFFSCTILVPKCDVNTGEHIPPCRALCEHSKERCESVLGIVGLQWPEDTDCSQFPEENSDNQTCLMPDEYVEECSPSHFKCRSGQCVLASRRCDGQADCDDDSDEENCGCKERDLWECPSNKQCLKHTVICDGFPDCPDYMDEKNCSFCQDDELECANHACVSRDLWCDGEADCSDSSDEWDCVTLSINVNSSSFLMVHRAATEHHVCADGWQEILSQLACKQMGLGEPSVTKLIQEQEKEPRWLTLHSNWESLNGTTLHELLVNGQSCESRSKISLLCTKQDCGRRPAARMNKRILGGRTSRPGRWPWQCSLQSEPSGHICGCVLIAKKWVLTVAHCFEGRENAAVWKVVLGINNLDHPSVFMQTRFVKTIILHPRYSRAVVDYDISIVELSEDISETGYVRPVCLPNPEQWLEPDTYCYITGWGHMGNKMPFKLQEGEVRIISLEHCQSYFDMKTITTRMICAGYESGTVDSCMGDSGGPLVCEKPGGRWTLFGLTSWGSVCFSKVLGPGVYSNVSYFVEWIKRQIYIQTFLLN", "experiment": "PCSK6-mediated corin activation in HEK293 cells, corin mutant S472G", "format": "cell-based", "conditions": "Western, densitometry", "text": "as §1\nHEK293 and HL-1 cells were transfected with corin or PCSK6 expression plasmids. After 48-72 h, cells were lysed in a buffer containing 25 mM Tris-HCl, pH 7.4, 150 mM NaCl, 1 mM EDTA, 1% (v/v) NP-40, and 1% (v/v) protease inhibitor cocktail. Recombinant corin and PCSK6 proteins were immunoprecipitated with an anti-V5 or anti-flag antibody. Western blotting was carried out to analyze corin expression and activation or PCSK6 expression with or without reducing agents. Percentage of corin activation (corin-p vs. corin fragments) was quantified by densitometric analysis of Western blots."}}, "data": [{"molecule": "proprotein convertase subtilisin/kexin-6 (protein, listed as Homo sapiens, C-terminal FLAG tag) MPPRAPPAPGPRPPPRAAAATDTAAGAGGAGGAGGAGGPGFRPLAPRPWRWLLLLALPAACSAPPPRPVYTNHWAVQVLGGPAEADRVAAAHGYLNLGQIGNLEDYYHFYHSKTFKRSTLSSRGPHTFLRMDPQVKWLQQQEVKRRVKRQVRSDPQALYFNDPIWSNMWYLHCGDKNSRCRSEMNVQAAWKRGYTGKNVVVTILDDGIERNHPDLAPNYDSYASYDVNGNDYDPSPRYDASNENKHGTRCAGEVAASANNSYCIVGIAYNAKIGGIRMLDGDVTDVVEAKSLGIRPNYIDIYSASWGPDDDGKTVDGPGRLAKQAFEYGIKKGRQGLGSIFVWASGNGGREGDYCSCDGYTNSIYTISVSSATENGYKPWYLEECASTLATTYSSGAFYERKIVTTDLRQRCTDGHTGTSVSAPMVAGIIALALEANSQLTWRDVQHLLVKTSRPAHLKASDWKVNGAGHKVSHFYGFGLVDAEALVVEAKKWTAVPSQHMCVAASDKRPRSIPLVQVLRTTALTSACAEHSDQRVVYLEHVVVRTSISHPRRGDLQIYLVSPSGTKSQLLAKRLLDLSNEGFTNWEFMTVHCWGEKAEGQWTLEIQDLPSQVRNPEKQGKLKEWSLILYGTAEHPYHTFSAHQSRSRMLELSAPELEPPKAALSPSQVEVPEDEEDYTAQSTPGSANILQTSVCHPECGDKGCDGPNADQCLNCVHFSLGSVKTSRKCVSVCPLGYFGDTAARRCRRCHKGCETCSSRAATQCLSCRRGFYHHQEMNTCVTLCPAGFYADESQKNCLKCHPSCKKCVDEPEKCTVCKEGFSLARGSCIPDCEPGTYFDSELIRCGECHHTCGTCVGPGREECIHCAKNFHFHDWKCVPACGEGFYPEEMPGLPHKVCRRCDENCLSCAGSSRNCSRCKTGFTQLGTSCITNHTCSNADETFCEMVKSNRLCERKLFIQFCCRTCLLAG", "values": [{"measurement": "corin activation on PCSK overexpression (loss of corin zymogen band)", "setting": "recombinant human corin", "result": "enhanced corin activation"}, {"measurement": "reduction in PCSK6-mediated corin activation compared with WT corin", "setting": "corin mutant S472G", "result": 99, "unit": "%"}]}]}
